Reference: the DeepSol protein solubility set

test: soluble on expression in E. coli; label from the status in PepcDB or PDB records

Row | Sequence | soluble on expression in E. coli
1 | MGSDKIHHHHHHMWRNAQVNWDDYRCFLTLAKTGSFSRAARLLHVDHTTVGRRVAALEVDLGIKLVERLAREVRLTAEGHDLATLGLPVEEAMASVERAAAGGGAALAGPVHISAPPGLASLLLAPKLVSLHRQYPEIKITMSSDKDFANLNRREADIALRLSRPLSNGLVARKLRDIPFFFFASHTYDIAEDDWEFITYLQADDILPQQSWLMQHIGSRTIALRCSDAASQVQAAASGLGVALLPDYLGYNDTRLRKCPSRLTPPRRELWMVVHDDIRHAPRVRVVLDFLIGILTATQDLELPHASEA | not soluble
2 | MAHHHHHHMKPKMRRESAQPCLTCMPAILNKSVCPIHKIYSDNTLLLFMVIDCYNKMCSKKISTRNANDYKKLWNDNKLLICYSHGVLFHMHTRTSKTCFPQNYFSSNNDNCECGVHQVRFKTLKAQVHIIIPAILTGTTIV | not soluble
3 | IKDFDYNIGFNMSTTKNKVVELSDADQVLQGEGLKYGTEHFPTETRVGKPIGAFYLYRTDGIFQSMDEVNAHVNKDGQLLQPNAQPGDIRFKDLDGNGSIDAGDKEYCGSGIPTLEANLNLSFGYKGFDLSIVLGSAWNFKLYNGNKYFYEGMNSKSNMLKSTLNAWTPDNRNTDVPRAVYQDPNGNMKESDRFLENGDFVRLRQAQLGYTLPKSLMQKFYIEKLRFYVSGENLFTITGYDGIDPEFSRASVLNTGVDKLIYPFTRSFTVGAQLTF | not soluble
4 | MACTGYEELRKWFLDKMVNACRAIRDQKEDQSNSAAKKAMLYIQENYNKDISLDDVSGIVNISPYYFSKIFKEETGENFIEYVTKVRIEKAKEFLAQPDISIKEAGIRSGYTDPNYFSRIFKKQTDMTPSEYKTRYGK | not soluble
5 | MADAEVIILPKKHKKKKERKSLPEEDVAEIQHAEEFLIKPESKVAKLDTSQWPLLLKNFDKLNVRTTHYTPLACGSNPLKREIGDYIRTGFINLDKPSNPSSHEVVAWIRRILRVEKTGHSGTLDPKVTGCLIVCIERATRLVKSQQSAGKEYVGIVRLHNAIEGGTQLSRALETLTGALFQRPPLIAAVKRQLRVRTIYESKMIEYDPERRLGIFWVSCEAGTYIRTLCVHLGLLLGVGGQMQELRRVRSGVMSEKDHMVTMHDVLDAQWLYDNHKDESYLRRVVYPLEKLLTSHKRLVMKDSAVNAICYGAKIMLPGVLRYEDGIEVNQEIVVITTKGEAICMAIALMTTAVISTCDHGIVAKIKRVIMERDTYPRKWGLGPKASQKKLMIKQGLLDKHGKPTDSTPATWKQEYVDYSESAKKEVVAEVVKAPQVVAEAAKTAKRKRESESESDETPPAAPQLIKKEKKKSKKDKKAKAGLESGAEPGDGDSDTTKKKKKKKKAKEVELVSE | soluble
6 | EVVVIGYGSVKKDDLSGSVVAIKAEEMNKGAVTSPQELIMGKVPGLSVSQGDGAPGAGSTIRIRGGASLNASNDPLIVIDGIPVSNDAAPGTPNALATINPNDIETFTVLKDASATAIYGSRASNGVIII | not soluble
7 | MGRGEHKEHKRKRSRSKERKRSRSRSPRGSREHREHRDRDRDRERRRERDTDREKTRDREKQRDAEKKKEKESKTAIFEMEESRNDTEEVMKMKEAELLQGVERRRRNVEKWRAQKKKEELDLQSEQSDEKSEKKPWNLEDEDDEDEFDIKNEGISEENPVKMEEKVEKMDTDDEEDPLDAFMKEIATKNAKKTGNSTQKASGIVTIVQEEKPEPEKGQVLENEDNMDMVIDDFDIETAAASLCHKGRMLAQTDHSKVYYRKFKKNFYIETEEIRRMTKAEVKAYREELDSITVKGIDCPKPIKTWAQCGVNLKMMNVLKKFEYSKPTSIQAQAIPSIMSGRDVIGIAKTGSGKTLAFLLPMFRHILDQPELEEGDGPIAVILAPTRELAMQTYKEANKFAKPLGLKVACTYGGVGISEQIADLKRGAEIVVCTPGRMIDVLAANSGKVTNLRRVTYLVLDEADRMFDKGFEPQIMKVVNNIRPDKQTVLFSATFPRHMEALARKVLDKPVEILVGGKSVVCSDITQNAVICAEHQKFLKLLELLGMYYEEGSSIVFVDKQEKADDIVDQLMRTGYNSVAPLHGGIDQHDRDSSIADFKTGVIKVLVATSVAARGLDVKNLILVVNYDCPNHYEDYVHRVGRTGRAGRKGYAYTFVLPEHQEKMAGEICRAFETAGCKPPADLKAMFERFKSEMAAEGKEVKLGGKGFEGSGYKYDEGEAEADANKKRMTRLTAQLQRGGTQARYKV | not soluble
8 | KKPMFLCVLSSTKTAHIPKLSAAGKTAELTDYTPAGDAELMETGNIISVPVLPMTPPYDTPTPAIMTRSALKLTDAPYHFINSGLIVTPDVPCIDLKANPGEDIREPVAVMDVQGIYERAKLLAKRLRNQADHVVIGESIPGGTTTAMGVLMALGYNGNVSSSADENPLELKKQVVEEGMKASGLTFGCLKDDPMKAIACMGDPMMPAVAGLVAGFQDTDTSVVLAGGTQMAAVYALIKHMGLNTEKIAIATTRYVVEDKSANFIQLTTTLGVPVVYVADPGFGKSSMKGLHRYETGTIKEGAGAGGAMYLAG | not soluble
9 | MPAPEAPTSTLPPERPLTNLQQQIQQLVSRQPNLTAGLYFFNLDSGASLNVGGDQVFPAASTIKFPILVAFFKAVDEGRVTLQERLTMRPDLIAPEAGTLQYQKPNSQYAALEVAELMITISDNTATNMIIDRLGGAAELNQQFQEWGLENTVINNPLPDMKGTNTTSPRDLATLMLKIGQGEILSPRSRDRLLDIMRRTVTNTLLPAGLGKGATIAHKTGDIGIVVGDAGMVDMPNGQRYVAAMMVKRPYNDPRGSELIRQVSRMVYQAFEKLSPPEQKLISEEDLNSAVDHHHHHH | soluble
10 | MAGTISDYGGRQQIWNLGNNIIDTKKLVDLELQALEMKKSPYTTQKQTLTNEKNVYASMKKEFGNLVQVFKDLYAFKGDEKKTTLSKDGFMKAQADAAAIPGTYTITVERVAERHQITTAPLTPSKTPESMEQKFSLDLKLGVDDVFQINGKEVKISKDMTYKDLVNKINNGNYGASVYTLGDQLFFTSTTAGEAGELKLTDGANGFLQNIGLVTSAKNPDGTNVVAHQVTGAINAEYTINGIKGTSKTNKIDTIPGLTINLEKETTEPIKLTIEDSDIKNSIDLIKKMKDEYNKAVKSLDLFAGENGVMQGSNVSFAINNAMTGIFKFSQDDKYLFSFGIQIDKKGNMTLDEEKLKTAFKENPESTKQFFFGLNGLGHDTEKKLDGIFGDEGIIGKRSKSIEKQVTDLERKIQDIDTVNKEKQKTIIDKYAKLESQLALLDSQLKTIQAMTKTKSDD | not soluble
11 | MGSDKIHHHHHHENEYITNIDRTFGTRISYEISKRYGELGLEGSRSITIGLKGHAGQSFCAFLAKGVSVTLEGDANDYVGKCLSGGKIVIFPPKAASYKSEENSVIGNVALYGATSGDCWFRGVAGERFAVRNSGANVIVEAVGDHGCEYMTGGRVIVLGSIGRNFAAAMSGGIAYLFAQEDNFSRLINAATVDLDDASTEDLIFVKAK | not soluble
12 | MKSLETMARYKKELTECARNLKLPFLAEHLDEILHEAQEKQQTYSEFLSTCLMRELRDKERRSYLTRLKFAGLPARYDLDLYDFSRTEGIDQRQMRELRELVWIRRTYNLLLVGDSGTGKTFIASGLIHEAVKAGYKAYLLTLEELFVCLKTKEISRPAMKTYKRIMKAQLLAIDDVTLFPLKGEDVLLLFKLVNCVQGKTSLIITASRDLTGWLEMAGDEVCAAALLDRLLYCCEIIRLSGKSYRMENRKTIFSNQQIGTASLEHHHHHH | not soluble
13 | TPTTFVHLFEWNWQDVAQECEQYLGPKGYAAVQVSPPNEHITGSQWWTRYQPVSYELQSRGGNRAQFIDMVNRCSAAGVDIYVDTLINHMAAGSGTGTAGNSFGNKSFPIYSPQDFHESCTINNSDYGNDRYRVQNCELVGLADLDTASNYVQNTIAAYINDLQAIGVKGFRFDASKHVAASDIQSLMAKVNGSPVVFQEVIDQGGEAVGASEYLSTGLVTEFKYSTELGNTFRNGSLAWLSNFGEGWGFMPSSSAVVFVDNHDNQRGHGGAGNVITFEDGRLYDLANVFMLAYPYGYPRVMSSYDFHGDTDAGGPNVPVHNNGNLECFASNWKCEHRWSYIAGGVDFRNNTADNWAVTNWWDNTNNQISFGRGSSGHMAINKEDSTLTATVQTDMASGQYCNVLKGELSADAKSCSGEVITVNSDGTINLNIGAWDAMAIHKNAKLNTSSAS | soluble
